This note sets out measurements from US20210238260.

B1: FIXa variant R318Y/R338E/N346Y/R403E/E410N (mature FIX numbering) (protein)
chain 1: YNSGKLEEFVQGNLERECMEEKCSFEEAREVFENTERTTEFWKQYVDGDQCESNPCLNGGSCKDDINSYECWCPFGFEGKNCELDVTCNIKNGRCEQFCKNSADNKVVCSCTEGYRLAENQKSCEPAVPFPCGRVSVSQTSKLTR
chain 2: VVGGEDAKPGQFPWQVVLNGKVDAFCGGSIVNEKWIVTAAHCVETGVKITVVAGEHNIEETEHTEQKRNVIRIIPHHNYNAAINKYNHDIALLELDEPLVLNSYVTPICIADKEYTNIFLKFGSGYVSGWGRVFHKGYSALVLQYLRVPLVDRATCLESTKFTIYYNMFCAGFHEGGRDSCQGDSGGPHVTEVEGTSFLTGIISWGEECAMKGKYGIYTKVSEYVNWIKNKTKLT
B2: FIXa variant R318Y/R338E/T343R/R403E/E410N (mature FIX numbering) (protein)
chain 1: B1 chain 1
chain 2: B1 chain 2 with T163R, Y166N
B3: FIXa variant R318Y/R338E/T343R/N346Y/R403E/E410N (mature FIX numbering) (protein)
chain 1: B1 chain 1
chain 2: B1 chain 2 with T163R
B4: FIXa-Y155F/N260S/R318Y/R338E/R403E/E410N (protein)
chain 1: B1 chain 1
chain 2: B1 chain 2 with N80S, Y166N
B5: FIXa-K228N/R318Y/E410N (protein)
chain 1: B1 chain 1
chain 2: B1 chain 2 with K48N, E158R, Y166N, E223R
B6: FIXa-D203N/F205T/R318Y (protein)
chain 1: B1 chain 1
chain 2: B1 chain 2 with D23N, F25T, E158R, Y166N, E223R, N230E
B7: FIXa-R318Y/R338E/R403E/E410N (protein)
chain 1: B1 chain 1
chain 2: B1 chain 2 with Y166N
B8: FIXa-D203N/F205T/K228N (protein)
chain 1: B1 chain 1
chain 2: B1 chain 2 with D23N, F25T, K48N, Y138R, E158R, Y166N, E223R, N230E
B9: FIXa-R318Y/R403E/E410N (protein)
chain 1: B1 chain 1
chain 2: B1 chain 2 with E158R, Y166N
B10: FIXa-Y155F/R318Y/R338E/E410N (protein)
chain 1: B1 chain 1
chain 2: B1 chain 2 with Y166N, E223R
B11: FIXa-R338E/R403E/E410N (protein)
chain 1: B1 chain 1
chain 2: B1 chain 2 with Y138R, Y166N
B12: FIXa-K228N/R338E/R403E (protein)
chain 1: B1 chain 1
chain 2: B1 chain 2 with K48N, Y138R, Y166N, N230E
B13: FIXa-D203N/F205T/R338E/R403E (protein)
chain 1: B1 chain 1
chain 2: B1 chain 2 with D23N, F25T, Y138R, Y166N, N230E
B14: FIXa-D203N/F205T/R338A (protein)
chain 1: B1 chain 1
chain 2: B1 chain 2 with D23N, F25T, Y138R, E158A, Y166N, E223R, N230E
B15: FIXa-R318Y/R338E/E410N (protein)
chain 1: B1 chain 1
chain 2: B1 chain 2 with Y166N, E223R
B16: FIXa-D203N/F205T/R338E (protein)
chain 1: B1 chain 1
chain 2: B1 chain 2 with D23N, F25T, Y138R, Y166N, E223R, N230E
B17: FIXa-D203N/F205T/E410N (protein)
chain 1: B1 chain 1
chain 2: B1 chain 2 with D23N, F25T, Y138R, E158R, Y166N, E223R
B18: FIXa-D104N/K106S/R318Y/R338E/E410N (protein)
chain 1: B1 chain 1 with D104N, K106S
chain 2: B1 chain 2 with Y166N, E223R
B19: FIXa-R318Y/T343R/E410N (activated Factor IX variant, mature FIX numbering) (protein)
chain 1: B1 chain 1
chain 2: B1 chain 2 with E158R, T163R, Y166N, E223R
B20: FIXa-K228N/K247N/N249S/R318Y/R338E/T343R/R403E (activated Factor IX variant, mature FIX numbering) (protein)
chain 1: B1 chain 1
chain 2: B1 chain 2 with K48N, K67N, N69S, T163R, Y166N, N230E
B21: FIXa-K228N/K247N/N249S/R318Y/R338E/T343R/E410N (activated Factor IX variant, mature FIX numbering) (protein)
chain 1: B1 chain 1
chain 2: B1 chain 2 with K48N, K67N, N69S, T163R, Y166N, E223R
B22: FIXa-K228N/K247N/N249S/R318Y/T343R/R403E/E410N (activated Factor IX variant, mature FIX numbering) (protein)
chain 1: B1 chain 1
chain 2: B1 chain 2 with K48N, K67N, N69S, E158R, T163R, Y166N
B23: FIXa-K228N/R318Y/R338E/T343R/R403E/E410N (activated Factor IX variant, mature FIX numbering) (protein)
chain 1: B1 chain 1
chain 2: B1 chain 2 with K48N, T163R, Y166N

Changes are numbered by the printed parent chain. In names and notes the source's numbering stands. Several values for one entry are separate records, joined by “and”; a condition that tells them apart may be missing. Equal values may be shown once.

Chain of Factor X (FX), P00742 (P00742 whole entry, looked up): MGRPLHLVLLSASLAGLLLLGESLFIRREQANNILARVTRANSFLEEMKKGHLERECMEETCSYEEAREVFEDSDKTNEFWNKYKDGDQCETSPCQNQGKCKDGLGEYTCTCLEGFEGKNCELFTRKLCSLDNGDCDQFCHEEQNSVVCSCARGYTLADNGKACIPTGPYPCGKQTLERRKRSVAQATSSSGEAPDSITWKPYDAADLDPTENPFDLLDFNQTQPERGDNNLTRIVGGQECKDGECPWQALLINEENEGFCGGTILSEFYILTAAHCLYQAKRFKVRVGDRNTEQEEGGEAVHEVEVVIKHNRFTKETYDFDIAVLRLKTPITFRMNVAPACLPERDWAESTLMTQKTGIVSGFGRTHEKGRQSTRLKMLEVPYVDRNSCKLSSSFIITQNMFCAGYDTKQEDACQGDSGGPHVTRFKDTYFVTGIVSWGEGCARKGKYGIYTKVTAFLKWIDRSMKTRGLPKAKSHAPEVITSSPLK

The first data set deals with plasma purified human AT-III (antithrombin III), in complex with full-length unfractionated heparin (UFH). The data set is described as follows: ratio of K0.5 (lower-limit value) of the variant to K0.5 of Catalyst Biosciences WT FIXa, AT-III/UFH inhibition.
Consider B1, for which the K0.5-mut/K0.5-wt stood at 517.
Same read-out and setting: next, B2: 517.
As to B3, the K0.5-mut/K0.5-wt was 517.

The target in another data set is plasma purified human antithrombin III (AT-III), as complex with unfractionated heparin. Briefly: ratio of K0.5 to Catalyst Biosciences WT FIXa, AT-III/UFH inhibition.
For the protein B4, the K0.5-mut/K0.5-wt is 501.

Another data set has as its target plasma purified human AT-III (antithrombin III). The data set is described as follows: AT-III/UFH inhibition K0.5, ratio to Catalyst Biosciences WT FIXa.
On to B4, for which the K0.5-mut/K0.5-wt was 501.

In another data set the target is T1, Antithrombin III (plasma purified human AT-III, Molecular Innovations). Briefly: AT-III/UFH inhibition: FIXa variant incubated with AT-III dilutions in excess unfractionated heparin, residual cleavage of Mesyl-D-CHG-Gly-Arg-AMC; K0.5 = AT-III concentration for 50% inhibition (IC50).
With B5, the K0.5 turned out to be 475 nM.
Same read-out and setting: next, B6: 7230 nM; B7: 5880 nM; B8: 822 nM.
Same read-out and setting: next, B9: 7070 nM.
With B10, the K0.5 worked out at 1100 nM.
B11 came in with a K0.5 of 2350 nM.
For the protein B12, the K0.5 worked out at 1680 nM.
Same read-out and setting: next, B13: 1520 nM; B14: 423 nM; B15: 3460 nM.
In turn, B16 gave a K0.5 of 1170 nM.
In turn, B17 showed a K0.5 of 377 nM.
As for B18, the K0.5 stood at 6330 nM.

For the next data set, the target named is Factor X, P00742.
Chain of Factor X, P00742 (P00742 whole entry, looked up): as above
Test: not given
For B5, the Michaelis constant (KM) is 0.042 µM.
On the same count and under the same terms, next, B6: 0.0475 µM; B7: 0.0455 µM; B8: 0.0399 µM.
The same measure, in the same setting: next, B9: 0.0883 µM.
As to B10, the KM is 0.016 µM.
Same read-out and setting: next, B11: 0.0455 µM; B12: 0.0592 µM.
On the same count and under the same terms, next, B13: 0.0511 µM; B14: 0.0385 µM; B15: 0.0142 µM.
On the same count and under the same terms, next, B16: 0.0241 µM.
On to B4, for which the “% of WT kcat/KM” value amounted to 156%, the kcat is 5.8 s⁻¹ and the kcat/KM came out at 7e+07 M⁻¹ s⁻¹.
Turning to B17, the Michaelis constant (KM) worked out at 0.0455 µM.
As to B18, the Michaelis constant (KM) was 0.0189 µM.

The target of the next data set is Factor X (FX) zymogen, active site titrated and DFP/EGR-cmk treated, P00742.
Chain of Factor X (FX) zymogen, active site titrated and DFP/EGR-cmk treated, P00742 (P00742 whole entry, looked up): as above
Test: not given
On to B19, for which the “% of WT kcat/KM (against recombinant Catalyst Biosciences WT FIXa)” value was 135%; the kcat/KM (catalytic activity for FX activation; Xase complex with FVIIIa, PC/PS vesicles and Ca2+; fluorogenic Spectrafluor FXa read-out) amounted to 6.2e+07 M⁻¹ s⁻¹.
For B20 the same measures were 636% and 2.9e+08 M⁻¹ s⁻¹.
For B21 the same measures were 278% and 1.3e+08 M⁻¹ s⁻¹.
For B22 the same measures were 153% and 7.1e+07 M⁻¹ s⁻¹.
As for B23, the “% of WT kcat/KM (against recombinant Catalyst Biosciences WT FIXa)” value came to 593%; the kcat/KM (catalytic activity for FX activation; Xase complex with FVIIIa, PC/PS vesicles and Ca2+; fluorogenic Spectrafluor FXa read-out) is 2.7e+08 M⁻¹ s⁻¹.

The next data set has as its target Factor X (FX), P00742.
Test: not given
As for B5, the kcat turned out to be 5 s⁻¹.
On to B6, for which the “% of WT kcat/KM” value was 45%, the kcat worked out at 0.9 s⁻¹ and the kcat/KM was found to be 2e+07 M⁻¹ s⁻¹.
Turning to B7, the “catalytic activity (kcat/KM) for activation of FX” value is “displayed some of the greatest increases in catalytic activity”; the kcat is 5 s⁻¹ and 5.8 s⁻¹.
For the protein B8, the “% of WT kcat/KM” value turned out to be 31%, the turnover number (kcat) stood at 0.6 s⁻¹ and the kcat/KM came to 1.4e+07 M⁻¹ s⁻¹.
For B9, the kcat came out at 2.3 s⁻¹.
Same read-out and setting: next, B10: 5.6 s⁻¹.
As to B13, the “% of WT kcat/KM” value is on record as 42%, the kcat stood at 0.9 s⁻¹ and the kcat/KM is 1.9e+07 M⁻¹ s⁻¹.
For the protein B14, the “% of WT kcat/KM” value worked out at 139%, the kcat was 2.3 s⁻¹ and the kcat/KM is 6.2e+07 M⁻¹ s⁻¹.
The corresponding values for B16 are 234%, 2.5 s⁻¹ and 1e+08 M⁻¹ s⁻¹.
On to B4, for which the KM turned out to be 0.0839 µM and the kcat of FX activation by FIXa (Xase complex with FVIIIa, PC/PS vesicles, Ca2+) was 5.8 s⁻¹.
With B17, the “% of WT kcat/KM” value stood at 94%, the turnover number (kcat) was found to be 1.7 s⁻¹ and the kcat/KM was 4.2e+07 M⁻¹ s⁻¹.
On to B18, for which the kcat was 4.8 s⁻¹.

The next data set has as its target T1, Antithrombin III (plasma purified human …). The data set is described as follows: same assay; ratio to recombinant wild-type FIXa (Catalyst Biosciences WT).
As to B5, the K0.5-mut/K0.5-wt came to 24.6.
As to B6, the K0.5-mut/K0.5-wt came to 374.
The same measure, in the same setting: next, B7: 304; B8: 42.5.
Still for that read-out and setting: next, B9: 366; B10: 56.8; B11: 122.
For B12, the K0.5-mut/K0.5-wt turned out to be 86.8.
The same measure, in the same setting: next, B13: 78.6.
Turning to B14, the K0.5-mut/K0.5-wt came out at 21.9.
For the protein B15, the K0.5-mut/K0.5-wt was found to be 179.
The same measure, in the same setting: next, B16: 60.5; B17: 19.5; B18: 327.

A further data set addresses antithrombin III (plasma purified human AT-III), used as the AT-III/unfractionated heparin complex. The data set is described as follows: K0.5 ratio to Catalyst Biosciences WT FIXa, AT-III/UFH inhibition assay.
In the case of B5, the K0.5-mut/K0.5-wt was found to be 24.6 fold.
As for B6, the K0.5-mut/K0.5-wt came out at 374 fold.
B7: the K0.5-mut/K0.5-wt was 304 fold.
Take B8: the K0.5-mut/K0.5-wt was 42.5 fold.
Same read-out and setting: next, B9: 366 fold; B10: 56.8 fold; B11: 122 fold.
Consider B12, for which the K0.5-mut/K0.5-wt was found to be 86.8 fold.
Same read-out and setting: next, B13: 78.6 fold; B14: 21.9 fold; B15: 179 fold.
The same measure, in the same setting: next, B16: 60.5 fold; B17: 19.5 fold.
For B18, the K0.5-mut/K0.5-wt amounted to 327 fold.

Broadly, the KM is the substrate concentration at which the rate is half of its maximum. Usually kcat stands for the number of substrate molecules converted per active site and unit of time at saturation. Broadly, the kcat/KM is the turnover number divided by the Michaelis constant.
